These results are taken from article PMC4753803.

The test has as its target death receptor 5 (DR5) (human (endogenous in MB231)), O14763. Briefly: co-IP + pull-down. The note with it: remark: other sources report otherwise.

B1: caspase-8, Q14790 1-479 (enzyme)
chain: MDFSRNLYDIGEQLDSEDLASLKFLSLDYIPQRKQEPIKDALMLFQRLQEKRMLEESNLSFLKELLFRINRLDLLITYLNTRKEEMERELQTPGRAQISAYRVMLYQISEEVSRSELRSFKFLLQEEISKCKLDDDMNLLDIFIEMEKRVILGEGKLDILKRVCAQINKSLLKIINDYEEFSKERSSSLEGSPDEFSNGEELCGVMTISDSPREQDSESQTLDKVYQMKSKPRGYCLIINNHNFAKAREKVPKLHSIRDRNGTHLDAGALTTTFEELHFEIKPHDDCTVEQIYEILKIYQLMDHSNMDCFICCILSHGDKGIIYGTDGQEAPIYELTSQFTGLKCPSLAGKPKVFFIQACQGDNYQKGIPVETDSEEQPYLEMDLSSPQTRYIPDEADFLLGMATVNNCVSYRNPAEGTWYIQSLCQSLRERCPRGDDILTILTEVNYEVSNKDDKKNMGKQMPQPTFTLRKKLVFPSD
As for B1, the ratio of caspase-8/DR5 in DR5 precipitates, Axl knocked down relative to siNEG came to 1.73 fold.
